Values belong to the binder of their own block, whether it stands above or below them.
B1: F-ATPase subunit f (natural protein, bovine, UniProt Q28851 1-88, looked up)
chain: MASVVPLKEKKLLEVKLGELPSWILMRDFTPSGIAGAFQRGYYRYYNKYVNVKKGSIAGLSMVLAAYVFLNYCRSYKELKHERLRKYH
notes: ATP synthase subunit f, mitochondrial, bovine; endogenous supernumerary membrane subunit of the purified F-ATPase; source: purified from bovine mitochondrial membranes as part of the F-ATPase complex
B2: F-ATPase subunit d (natural protein)
chain: not shown
notes: ATP synthase subunit d, mitochondrial, bovine; endogenous subunit of the peripheral stalk of the purified F-ATPase; source: purified from bovine mitochondrial membranes as part of the F-ATPase complex
B3: F-ATPase subunit F6 (natural protein, bovine, UniProt P02721 33-108, looked up)
chain: NKELDPVQKLFVDKIREYRTKRQTSGGPVDAGPEYQQDLDRELFKLKQMYGKADMNTFPNFTFEDPKFEVVEKPQS
notes: ATP synthase coupling factor 6, mitochondrial, bovine; endogenous subunit of the peripheral stalk of the purified F-ATPase; printed length 76 amino acids; source: purified from bovine mitochondrial membranes as part of the F-ATPase complex

Experiments:
Details in all cases: both partners purified
[1] = molecular target: T1, F-ATPase subunit g (bovine, UniProt Q28852 1-103); assay: cross-linking; purified monomeric bovine F-ATPase reacted with BS^3(d0/d12) at the same concentration and under the same conditions as DSS; tryptic digest, linked lysines identified by mass spectrometry
T1 construct: ATP synthase subunit g, mitochondrial, bovine; endogenous supernumerary membrane subunit of the purified F-ATPase; source: purified from bovine mitochondrial membranes as part of the F-ATPase complex
T1 sequence (looked up): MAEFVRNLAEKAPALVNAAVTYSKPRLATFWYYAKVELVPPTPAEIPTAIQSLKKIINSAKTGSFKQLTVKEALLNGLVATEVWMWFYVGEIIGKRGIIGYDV

[2] = molecular target: T2, F-ATPase subunit b (bovine, UniProt P13619 43-256); assay: as above
T2 construct: ATP synthase subunit b, mitochondrial, bovine; endogenous subunit of the peripheral stalk of the purified F-ATPase; source: purified from bovine mitochondrial membranes as part of the F-ATPase complex
T2 sequence (looked up): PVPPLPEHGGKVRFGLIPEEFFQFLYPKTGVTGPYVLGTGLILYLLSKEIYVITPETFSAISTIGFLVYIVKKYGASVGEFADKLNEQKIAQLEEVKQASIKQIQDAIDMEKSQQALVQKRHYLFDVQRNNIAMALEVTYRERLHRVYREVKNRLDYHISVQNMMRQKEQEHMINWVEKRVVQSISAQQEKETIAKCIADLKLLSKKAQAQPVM

[3] = molecular target: B2; assay: cross-linking; purified monomeric bovine F-ATPase (2 μM, 1.16 mg/ml) in detergent and phospholipids reacted with 2 mM DSS(d0/d12), pH 8.0, 2 h; tryptic digest, cation exchange fractionation, linked lysines identified by mass spectrometry
[4] = molecular target: T2, F-ATPase subunit b; assay: as above
[5] = molecular target: T3, F-ATPase subunit 6.8PL (6.8-kDa proteolipid) (bovine, UniProt P14790 1-60); assay: as above
T3 construct: 6.8 kDa mitochondrial proteolipid, bovine; endogenous supernumerary membrane subunit of the purified F-ATPase; source: purified from bovine mitochondrial membranes as part of the F-ATPase complex

[6] = molecular target: T4, F-ATPase α-subunit (bovine, UniProt P19483 44-553); assay: as above
T4 construct: ATP synthase subunit alpha, mitochondrial, bovine; endogenous subunit of the F1 domain of the purified F-ATPase (three copies in the enzyme); also called subunit α; source: purified from bovine mitochondrial membranes as part of the F-ATPase complex
T4 sequence (P19483 44-553): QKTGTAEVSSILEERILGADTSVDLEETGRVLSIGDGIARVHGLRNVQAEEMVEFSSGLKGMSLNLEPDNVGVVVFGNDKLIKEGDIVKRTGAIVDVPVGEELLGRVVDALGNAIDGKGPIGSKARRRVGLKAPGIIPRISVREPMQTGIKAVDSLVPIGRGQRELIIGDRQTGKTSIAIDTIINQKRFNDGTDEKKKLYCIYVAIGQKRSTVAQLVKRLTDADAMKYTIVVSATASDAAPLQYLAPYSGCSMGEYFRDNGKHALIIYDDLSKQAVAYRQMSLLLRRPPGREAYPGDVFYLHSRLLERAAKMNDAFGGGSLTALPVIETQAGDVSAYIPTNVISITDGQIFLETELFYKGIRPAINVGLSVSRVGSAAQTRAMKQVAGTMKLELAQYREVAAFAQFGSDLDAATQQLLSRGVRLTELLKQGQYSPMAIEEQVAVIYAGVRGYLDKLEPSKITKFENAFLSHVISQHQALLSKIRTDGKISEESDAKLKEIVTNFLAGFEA

[7] = molecular target: B2; assay: as above; remark: listed apart in the source
[8] = molecular target: T2, F-ATPase subunit b; assay: as above; remark: listed apart in the source
[9] = molecular target: B3; assay: as above
[10] = molecular target: B1; assay: as above

Binder: B1
binding result [1]: binds

Binder: B2
binding result [2]: binds

Binder: B3
binding result [3]: binds
binding result [4]: binds

Next, values leading:

binding result [5]: binds
B4: F-ATPase subunit DAPIT (diabetes-associated protein in insulin-sensitive tissues) (natural protein, bovine, UniProt Q3ZBI7 1-58, looked up)
chain: MAGPEADAQFHFTGIKKYFNSYTLTGRMNCVLATYGSIALIVLYFKLRSKKTPAVKAT
notes: DAPIT (diabetes-associated protein in insulin-sensitive tissues), bovine; endogenous supernumerary membrane subunit of the purified F-ATPase; source: purified from bovine mitochondrial membranes as part of the F-ATPase complex

binding result [6]: binds
B5: F-ATPase subunit oscp (natural protein, bovine, UniProt P13621 24-213, looked up)
chain: FAKLVRPPVQIYGIEGRYATALYSAASKQNKLEQVEKELLRVGQILKEPKMAASLLNPYVKRSVKVKSLSDMTAKEKFSPLTSNLINLLAENGRLTNTPAVISAFSTMMSVHRGEVPCTVTTASALDEATLTELKTVLKSFLSKGQVLKLEVKIDPSIMGGMIVRIGEKYVDMSAKTKIQKLSRAMREIL
notes: ATP synthase subunit O (oligomycin sensitivity conferral protein), mitochondrial, bovine; endogenous subunit of the peripheral stalk of the purified F-ATPase; source: purified from bovine mitochondrial membranes as part of the F-ATPase complex

binding result [7]: binds
binding result [8]: binds
binding result [9]: binds
B6: F-ATPase subunit ATP8 (natural protein, bovine, UniProt P03929 1-66, looked up)
chain: MPQLDTSTWLTMILSMFLTLFIIFQLKVSKHNFYHNPELTPTKMLKQNTPWETKWTKIYLPLLLPL
notes: ATP synthase protein 8 (A6L), encoded in mitochondrial DNA, bovine; endogenous membrane subunit of the purified F-ATPase; C terminus at residue 66 as printed; also called A6L; source: purified from bovine mitochondrial membranes as part of the F-ATPase complex

binding result [10]: binds
B7: F-ATPase subunit e (natural protein, bovine, UniProt Q00361 1-71, looked up)
chain: MVPPVQVSPLIKLGRYSALFLGMAYGAKRYNYLKPRAEEERRLAAEEKKKRDEQKRIERELAEAQEDTILK
notes: ATP synthase subunit e, mitochondrial, bovine; endogenous supernumerary membrane subunit of the purified F-ATPase; source: purified from bovine mitochondrial membranes as part of the F-ATPase complex
